What was measured:
[1] = molecular target: β2AR-Renilla Reniformus luciferase II fusion (UniProt P07550 1-413); assay: cell-based or functional assay
FLAG-β2AR = FLAG-β2AR (UniProt P07550 1-413, limits assumed); assay: cell-based or functional assay

B1: ICL1-4 (peptide)
peptide: VITAIAKFERLQTVTN
HELM: PEPTIDE1{[CCCCCCCCCCCCCCCC(=O)[*:2]].V.I.T.A.I.A.K.F.E.R.L.Q.T.V.T.N.[am]}$$$$V2.0
SMILES: CCCCCCCCCCCCCCCC(=O)N[C@H](C(=O)N[C@H](C(=O)N[C@H](C(=O)N[C@@H](C)C(=O)N[C@H](C(=O)N[C@@H](C)C(=O)N[C@@H](CCCCN)C(=O)N[C@@H](Cc1ccccc1)C(=O)N[C@@H](CCC(=O)O)C(=O)N[C@@H](CCCNC(=N)N)C(=O)N[C@@H](CC(C)C)C(=O)N[C@@H](CCC(N)=O)C(=O)N[C@H](C(=O)N[C@H](C(=O)N[C@H](C(=O)N[C@@H](CC(N)=O)C(N)=O)[C@@H](C)O)C(C)C)[C@@H](C)O)[C@@H](C)CC)[C@@H](C)O)[C@@H](C)CC)C(C)C
- EC50 of β-arrestin2 recruitment to the β2AR (BRET) [1]: 1900 nM

B2: ICL1-20 (peptide)
peptide: LVITAIAKFERLQTVT
HELM: PEPTIDE1{[CCCCCCCCCCCCCCCC(=O)[*:2]].L.V.I.T.A.I.A.K.F.E.R.L.Q.T.V.T.[am]}$$$$V2.0
SMILES: CCCCCCCCCCCCCCCC(=O)N[C@@H](CC(C)C)C(=O)N[C@H](C(=O)N[C@H](C(=O)N[C@H](C(=O)N[C@@H](C)C(=O)N[C@H](C(=O)N[C@@H](C)C(=O)N[C@@H](CCCCN)C(=O)N[C@@H](Cc1ccccc1)C(=O)N[C@@H](CCC(=O)O)C(=O)N[C@@H](CCCNC(=N)N)C(=O)N[C@@H](CC(C)C)C(=O)N[C@@H](CCC(N)=O)C(=O)N[C@H](C(=O)N[C@H](C(=O)N[C@H](C(N)=O)[C@@H](C)O)C(C)C)[C@@H](C)O)[C@@H](C)CC)[C@@H](C)O)[C@@H](C)CC)C(C)C
- EC50 of β-arrestin2 recruitment to the β2AR (BRET) [1]: 1100 nM

B3: ICL1-11 (peptide)
peptide: TAIAKFERLQTVTNYF
HELM: PEPTIDE1{[CCCCCCCCCCCCCCCC(=O)[*:2]].T.A.I.A.K.F.E.R.L.Q.T.V.T.N.Y.F.[am]}$$$$V2.0
SMILES: CCCCCCCCCCCCCCCC(=O)N[C@H](C(=O)N[C@@H](C)C(=O)N[C@H](C(=O)N[C@@H](C)C(=O)N[C@@H](CCCCN)C(=O)N[C@@H](Cc1ccccc1)C(=O)N[C@@H](CCC(=O)O)C(=O)N[C@@H](CCCNC(=N)N)C(=O)N[C@@H](CC(C)C)C(=O)N[C@@H](CCC(N)=O)C(=O)N[C@H](C(=O)N[C@H](C(=O)N[C@H](C(=O)N[C@@H](CC(N)=O)C(=O)N[C@@H](Cc1ccc(O)cc1)C(=O)N[C@@H](Cc1ccccc1)C(N)=O)[C@@H](C)O)C(C)C)[C@@H](C)O)[C@@H](C)CC)[C@@H](C)O
- cAMP production in HEK293 cells stably overexpressing FLAG-β2AR (FLAG-β2AR): ~2 fold increase over vehicle
- EC50 of β-arrestin2 recruitment to the β2AR (BRET) [1]: 1700 nM

Reference: US20180353567A1 (THOMAS JEFFERSON UNIVERSITY, published 2018)
